Assay results reported in article PMC10774421 (Nature Communications, 2024).

How the values were obtained:
[1] = biological target: HiSiaQM OFS #2 (Y252C/M297C in HiSiaQM ΔCys) (Haemophilus influenzae) (UniProt P44543); test: single-molecule TIRF microscopy
HiSiaP = biological target: T1, HiSiaP (Haemophilus influenzae, UniProt P44542, S67C/S194C); conditions: 50 mM Tris pH 8, 50 mM NaCl; average of triplicates; CLOSED #1, no oxidant added
T1 construct: gene siaP

wild-type HiSiaQM = biological target: T2, wild-type HiSiaQM (Haemophilus influenzae, UniProt P44543); test: single-molecule TIRF microscopy; conditions: both partners purified
T2 construct: also called wt HiSiaQM; HiSiaQM wt

AF647-labeled wild-type HiSiaP (K254C) (from UniProt P44542 24-329) (natural protein)
change of the rate of interactions (against the wild-type proteins) [1]: -50%

CC(=O)N[C@H]1[C@H]([C@H](O)[C@H](O)CO)OC(O)(C(=O)O)C[C@@H]1O (stereo partly drawn) [Neu5Ac]
Kd (HiSiaP): 800 nM

B1: AF555-VHHQM3 (S85C) (VHH)
VHH: QLQLVETGGGLVQPGGSLRLSCTASRVTLDYHDIGWFRQAPGKEREGVSYISSSGGSTNYADSVKGRFTISRDNAKNTVYLQMNCLKPEDTAVYYCARSSAYGSSWLNPSRYDYWGQGTQVTVSS
binding result (wild-type HiSiaQM): binds
